Reference: article PMC11324310

Target: C-t FLAG-tagged WT-RELN (mouse) (UniProt Q60841)
Test: immunoblot in non-reducing conditions (SDS-PAGE); culture media of HEK293T cells coexpressing FLAG-WT-RELN and monoallelic variants; non-reducing conditions

A stoichiometry N of 2 was found for C-t FLAG-tagged WT-RELN, Q60841 27-3461 in this work.
